Consider 94 variants from the supplement of paper PMC10567573.

To fix the notation:
B1: P2RY14 (parent)
chain: KKIFKSHLKSSRNSTSVKKKSSRN
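Note: lentivirally expressed fusions sorted by FACS into six bins by GFP to DsRed ratio, PSI derived from sequencing read proportions per bin multiplied by bin number.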

The variants in the data set derive from B1. Kind of data set: protein stability index of a GFP-peptide fusion (GPS, HEK-293T) (PSI 1-6); higher = more stable. Conditions: c terminus: a fixed tail appended.
On to KKIFKSILKSSRNSTSVKKKSSRN [H7I], for which the protein stability index was 3.72.
In the case of KKIFKSDLKSSRNSTSVKKKSSRN [H7D] it was 4.36; in that of KKIFKSALKSSRNSTSVKKKSSRN [H7A], 3.79; in that of KKIFKSHLKKSRNSTSVKKKSSRN [S10K], 4.15.
The same measure for KKIFKSHLKVSRNSTSVKKKSSRN [S10V]: 3.81; for KKIFKSHLKASRNSTSVKKKSSRN [S10A]: 4.08; for KKIFKSHLKYSRNSTSVKKKSSRN [S10Y]: 3.54.
Take KKIFKSHLKNSRNSTSVKKKSSRN [S10N]: the protein stability index was 4.33.
In the case of KKIFKSHLKCSRNSTSVKKKSSRN [S10C] it was 4.03; in that of KKIFKSHLKQSRNSTSVKKKSSRN [S10Q], 3.83; in that of KHIFKSHLKSSRNSTSVKKKSSRN [K2H], 4.01.
Consider KLIFKSHLKSSRNSTSVKKKSSRN [K2L], for which the protein stability index was 3.2.
As to KFIFKSHLKSSRNSTSVKKKSSRN [K2F], the protein stability index came to 3.63.
In the case of KEIFKSHLKSSRNSTSVKKKSSRN [K2E] it was 4.29; in that of KKINKSHLKSSRNSTSVKKKSSRN [F4N], 4.49.
Regarding KKIKKSHLKSSRNSTSVKKKSSRN [F4K], the protein stability index was 4.47.
The same measure for KKIVKSHLKSSRNSTSVKKKSSRN [F4V]: 4.39; for KKIHKSHLKSSRNSTSVKKKSSRN [F4H]: 4.07.
Consider KKILKSHLKSSRNSTSVKKKSSRN [F4L], for which the protein stability index amounted to 4.
In the case of KKIDKSHLKSSRNSTSVKKKSSRN [F4D] it was 4.6; in that of KKICKSHLKSSRNSTSVKKKSSRN [F4C], 4.27; in that of KKIYKSHLKSSRNSTSVKKKSSRN [F4Y], 3.67.
The same measure for KKIPKSHLKSSRNSTSVKKKSSRN [F4P]: 4.58; for KKIGKSHLKSSRNSTSVKKKSSRN [F4G]: 4.56.
In the case of KKIFKSHLKSSRNSTGVKKKSSRN [S16G] it was 4.1; in that of KKIFKSHLKSSRNSTKVKKKSSRN [S16K], 4.07; in that of KKIFKSHLKSSRNSTLVKKKSSRN [S16L], 4.14.
With KKIFKSHLKSSRNSTRVKKKSSRN [S16R], the protein stability index is 4.22.
The same measure for KKIFKSHLKSSRNSTPVKKKSSRN [S16P]: 4.26.
Consider KKIFKSHLKSSRNSTYVKKKSSRN [S16Y], for which the protein stability index worked out at 4.28.
In the case of KKIFKSHLKSSRNSTIVKKKSSRN [S16I] it was 3.84; in that of KKIFKSHLKSSRNSTQVKKKSSRN [S16Q], 4.48.
In the case of KKIFKSHLKSSRNSTFVKKKSSRN [S16F] it was 3.57; in that of KKIFKSHLKSSRNSTAVKKKSSRN [S16A], 4.16; in that of KKIFKSHLKSSRNSTSVKKMSSRN [K20M], 3.48.
In the case of KKIFKSHLKSSRNSTSVKKHSSRN [K20H] it was 3.62; in that of KKIFKSHLKSSRNSTSVKKESSRN [K20E], 3.75; in that of KKIFKSHLKSSRNSTSVKKPSSRN [K20P], 3.83.
Take KKIFKSHLKSSRNSTSVKKGSSRN [K20G]: the protein stability index was 3.43.
The same measure for KKIFKSHLKSSRNSTSVKKDSSRN [K20D]: 3.89; for KKIFKSHLKSSSNSTSVKKKSSRN [R12S]: 3.94.
In the case of KKIFKSHLKSSDNSTSVKKKSSRN [R12D] it was 4.43.
The same measure for KKIFKSHLKSSYNSTSVKKKSSRN [R12Y]: 3.39; for KKIFKSHLKSSWNSTSVKKKSSRN [R12W]: 3.74; for KKIFKSHLKSSTNSTSVKKKSSRN [R12T]: 4.37.
Take KKIFKSHLKSSNNSTSVKKKSSRN [R12N]: the protein stability index was 4.17.
The same measure for KKIFKSHLKSSKNSTSVKKKSSRN [R12K]: 4.03; for KKIFKSHLKSSRNSTSVKNKSSRN [K19N]: 3.98.
For the variant KKIFKSHLKSSRNSTSVKIKSSRN [K19I], the protein stability index is 3.59.
In the case of KKIFKSHLKSSRNSTSVKPKSSRN [K19P] it was 3.34; in that of KKIFKSHLKSSRNSTSVKYKSSRN [K19Y], 3.17.
In the case of KKIFKSHLKSSRNSTSVKSKSSRN [K19S] it was 3.9; in that of KKIFKSHLKSSRNSTSVKRKSSRN [K19R], 4.27.
In the case of KKIFKSHLKSSRNSTSVKTKSSRN [K19T] it was 3.62; in that of KKIFKSHLKSSRNSTSVKKKVSRN [S21V], 4.14.
For KKIFKSHLKSSRNSTSVKKKCSRN [S21C], the protein stability index was determined as 3.84.
In the case of KKIFKSHLKSSRNSTSVKKKKSRN [S21K] it was 4.48.
The same measure for KKIFKSHLKSSRNSTSVKKKHSRN [S21H]: 4.22.
In the case of KKIFKSHLKSSRNSTSVKKKMSRN [S21M] it was 3.92; in that of KKIFKSHLKSSRNSTSVKKKRSRN [S21R], 4.27.
Consider KKIFKSHLKSSRNSTSVKKKYSRN [S21Y], for which the protein stability index was 3.38.
On to KKIFKSHLKSSRNSTSCKKKSSRN [V17C], for which the protein stability index stood at 4.17.
In the case of KKIFKSHLKSSRNSTSFKKKSSRN [V17F] it was 3.97; in that of KKIFKSHLKSSRNSTSPKKKSSRN [V17P], 4.09.
The same measure for KKIFKSHLKSSRNSTSMKKKSSRN [V17M]: 4.12; for KKIFKSHLKSSRNSTSEKKKSSRN [V17E]: 3.99; for KKIFKSHLKSSRNSTSAKKKSSRN [V17A]: 4.29.
On to KKIFKSHLKSSRNSTSLKKKSSRN [V17L], for which the protein stability index was determined as 4.02.
In the case of KKIFKSHLKSSRNSTSQKKKSSRN [V17Q] it was 4.06; in that of KKIFKSHFKSSRNSTSVKKKSSRN [L8F], 4.04; in that of KKIFKSHVKSSRNSTSVKKKSSRN [L8V], 4.14.
The same measure for KKIFKSHSKSSRNSTSVKKKSSRN [L8S]: 5.01; for KKIFKSHQKSSRNSTSVKKKSSRN [L8Q]: 3.49.
As to KKIFKSHGKSSRNSTSVKKKSSRN [L8G], the protein stability index came out at 4.49.
In the case of KKIFKSHIKSSRNSTSVKKKSSRN [L8I] it was 4.16; in that of KKIFKSHYKSSRNSTSVKKKSSRN [L8Y], 3.59.
In the case of KKIFKSHCKSSRNSTSVKKKSSRN [L8C] it was 4.39; in that of KKIFKSHLKSSRNSTSVKKKSSTN [R23T], 3.88; in that of KKIFKSHLKSSRNSTSVKKKSSLN [R23L], 3.51.
The same measure for KKIFKSHLKSSRNSTSVKKKSSFN [R23F]: 3.42; for KKIFKSHLKSSRNSTSVKKKSSMN [R23M]: 3.76.
As to KKIFKSHLKSSRNSTSVKKKSSAN [R23A], the protein stability index came to 4.05.
The same measure for KKIFKSHLKSSRNSTSVKKKSSVN [R23V]: 4.1; for KKIFKSHLKSSRNSTSVKKKSSEN [R23E]: 4.18.
The same measure for KKIFKSHLKSSRNSTSVKKKSSKN [R23K]: 4.2; for KKIFKSHLKSSRNSTSVKKKSSIN [R23I]: 3.67; for KKIFKSHLKSSRNSTSVKKKSMRN [S22M]: 4.19.
The same measure for KKIFKSHLKSSRNSTSVKKKSHRN [S22H]: 4.64; for KKIFKSHLKSSRNSTSVKKKSARN [S22A]: 4.01.
Regarding KKIFKSHLKSSRNSTSVKKKSGRN [S22G], the protein stability index was 4.32.
With KKIFKSHLKSSRNSTSVKKKSLRN [S22L], the protein stability index was 3.48.
KKIFKSHLKSSRNSTSVKKKSRRN [S22R]: the protein stability index stood at 4.13.
In the case of KKIFKSHLKSSRNSTSVKKKSDRN [S22D] it was 4; in that of KKIFKSHLKSSRNSTSVKKKSNRN [S22N], 4.2.
